# Data as given in IntAct's records for PubMed 21423209.
# B1: Catenin beta-1 (Homo sapiens), P35222 (parent)
# chain: MATQADLMELDMAMEPDRKAAVSHWQQQSYLDSGIHSGATTTAPSLSGKGNPEEEDVDTSQVLYEWEQGFSQSFTQEQVADIDGQYAMTRAQRVRAAMFPETLDEGMQIPSTQFDAAHPTNVQRLAEPSQMLKHAVVNLINYQDDAELATRAIPELTKLLNDEDQVVVNKAAVMVHQLSKKEASRHAIMRSPQMVSAIVRTMQNTNDVETARCTAGTLHNLSHHREGLLAIFKSGGIPALVKMLGSPVDSVLFYAITTLHNLLLHQEGAKMAVRLAGGLQKMVALLNKTNVKFLAITTDCLQILAYGNQESKLIILASGGPQALVNIMRTYTYEKLLWTTSRVLKVLSVCSSNKPAIVEAGGMQALGLHLTDPSQRLVQNCLWTLRNLSDAATKQEGMEGLLGTLVQLLGSDDINVVTCAAGILSNLTCNNYKNKMMVCQVGGIEALVRTVLRAGDREDITEPAICALRHLTSRHQEAEMAQNAVRLHYGLPVVVKLLHPPSHWPLIKATVGLIRNLALCPANHAPLREQGAIPRLVQLLVRAHQDTQRRTSMGGTQQQFVEGVRMEEIVEGCTGALHILARDVHNRIVIRGLNTIPLFVQLLYSPIENIQRVAAGVLCELAQDKEAAEAIEAEGATAPLTELLHSRNEGVATYAAAVLFRMSEDKPQDYKKRLSVELTSSLFRTEPMAWNETADLGLDIGAQGEPLGYRQDDPSYRSFHSGGYGQDALGMDPMMEHEMGGHHPGADYPVDGLPDLGHAQDLMDGLPPGDSNQLAWFDTDL
# Variants of: B1
# Conditions: with ron_mouse Mst1r
row,effect of a mutation on the interaction,Variant
1,disrupting interaction,Y654F;Y670F
